Laboratory results: article PMC3143649 (The Journal of Biological Chemistry, 2011)
Positions count from the first letter of the chain named. In names and notes the source's numbering stands. Several values for one entry are separate records, joined by “and”; a condition that tells them apart may be missing. Equal entries are not always repeated. Where two headings read alike, the source gives them in different places.

Experiments:
cross-linking = molecular target: the molecule itself; test: cross-linking
[1] = molecular target: Cys-less MtrE C21S (Neisseria gonorrhoeae) (UniProt Q51006); test: cross-linking
native MS = molecular target: the molecule itself; test: native MS
atomic force microscopy = molecular target: the molecule itself; test: atomic force microscopy
[2] = molecular target: the molecule itself; test: negative-stain electron microscopy
[3] = molecular target: the molecule itself

B1: NT-MtrC D143C (domain or fragment, Neisseria gonorrhoeae, UniProt P43505 35-412, looked up)
chain: GQPAGREAPAPVVGVVTVHPQTVALTVELPGRLESLRTADVRAQVGGIIQKRLFQEGSYVRAGQPLYQIDSSTYEAGLESARAQLATAQATLAKADADLARYKPLVSACAISKQEYDAAVTAKRSAEASVKAAQAAIKSAGINLNRSRITAPISGFIGQSKVSEGTLLNAGDTTVLATIRQTNPMYVNVTQSASEVMKLRRQIAEGKLLAADGAIAVGIKFDDGTVYPEKGRLLFADPTVDESTGQITLRAAVSNDQNILMPGLYVRVLMDQVAADNAFIVPQQAVTRGAKDTVMIVNAQGGMEPREVTVAQQQGTNWIVTSGLKDGDKVVVEGISIAGMTGAKKVTPKEWAPSENQAAAPQAGVQTASEAKPASEAK
cross-linking
  stoichiometry N: 2
[1]
  stoichiometry N (MtrC per MtrE): 2

B2: NT-MtrC E149C (domain or fragment, Neisseria gonorrhoeae, UniProt P43505 35-412, looked up)
chain: B1 chain with C109D, E115C
cross-linking
  stoichiometry N: 2
[1]
  stoichiometry N (MtrC per MtrE): 2

B3: NT-MtrC, the N-terminal truncated (Δ1–34) MtrC (domain or fragment, Neisseria gonorrhoeae, UniProt P43505 35-412, looked up)
chain: B1 chain with C109D
Native MS
  stoichiometry N: 6 and 5

B4: MtrC α-helical coiled-coil hairpin domain (domain or fragment, Neisseria gonorrhoeae, UniProt P43505 103-183, looked up)
chain: IDSSTYEAGLESARAQLATAQATLAKADADLARYKPLVSADAISKQEYDAAVTAKRSAEASVKAAQAAIKSAGINLNRSRI
Native MS
  stoichiometry N: 2
Atomic force microscopy
  stoichiometry N: 6

B5: MacA (natural protein, E. coli, UniProt P75830 1-371, looked up)
chain: MKKRKTVKKRYVIALVIVIAGLITLWRILNAPVPTYQTLIVRPGDLQQSVLATGKLDALRKVDVGAQVSGQLKTLSVAIGDKVKKDQLLGVIDPEQAENQIKEVEATLMELRAQRQQAEAELKLARVTYSRQQRLAQTKAVSQQDLDTAATEMAVKQAQIGTIDAQIKRNQASLDTAKTNLDYTRIVAPMAGEVTQITTLQGQTVIAAQQAPNILTLADMSAMLVKAQVSEADVIHLKPGQKAWFTVLGDPLTRYEGQIKDVLPTPEKVNDAIFYYARFEVPNPNGLLRLDMTAQVHIQLTDVKNVLTIPLSALGDPVGDNRYKVKLLRNGETREREVTIGARNDTDVEIVKGLEAGDEVVIGEAKPGAAQ
[2]
  stoichiometry N: 6

B6: MtrD (natural protein, Neisseria gonorrhoeae, UniProt Q51073 1-1067, looked up)
chain: MAKFFIDRPIFAWVISIFIIAAGIFGIKSLPVSQYPSVAAPTITLHAIYPGASAQVMEGSVLSVIERNMNGVEGLDYMSTSADSSGSGSVSLTFTPDTDENLAQVEVQNKLSEVLRTLPATVQQYGVTVSKARSNFLMIVMLSSDVQSTEEMNDYAQRNVVPELQRIEGVGQVRLFGAQRAMRIWVDPKKLQNYNLSFADVGSALSAQNIQISAGSIGSLPAVRGQTVTATVTAQGQLGTAEEFGNVILRANTDGSNIYLKDVAKVGLGMEDYSSSTRLNGVNTTGMAVMLSNSGNAMATAKAVKERLAVLEKYFPQGMSWKTPYDTSKFVEISIEKVIHTLIEAMVLVFVVMYLFLQNIRYTLIPTIVVPISLLGGFAFISYMGMSINVLTMFAMILVIGIVVDDAIVVVENVERIMAGEGLPPKEATKKAMGQISGAVIGITAVLISVFVPLAMFSGAAGNIYKQFALTMASSIAFSAFLALTLTPALCATMLKTIPKGHHEEKKGFFGWFNKKFDSWTHGYEGRVAKVLRKTFRMMVVYIGLAVVGVFLFMRLPTSFLPTEDQGFVMVSVQLPAGATKERTDATLAQVTQLAKSIPEIENIITVSGFSFSGSGQNMAMGFAIFKDWNERTASGSDAVAVAGKLTGMMMGTLKDGFGIAVVPPPILELGNGSGLSINLQDRNNTGHTGIAGEGNELIQKMRASGLFDPSTVRAGGLEDSPQLKIDINRAAAAAQGISFADIRTALASALSSSYVSDFPNQGRLQRVMVQADEDARMQPADILNLTVPNKSGVAVPLSTIATVSWENGTEQSVRFNGYPSMKLSASPATGVSTGQAMEAVQKMVDELGGGYSFEWGGQSSEEAKGGSQTLILYGLAVAAVFLVLAALYESWSIPLAVILVIPLGLIGAAAGVTGRNLFEGLLGSVPSFANDIYFQVGFVTVMGLSAKNAILIIEFAKDLQAQGKSAVEAALEAARLRFRPIIMTSFAFILGVVPLYIAAGASSASQRAIGTTVFWGMLVGTLLSVFLVPLFYVVVRKFFKETAHEHEMAVRHASKAGITGSDDKQY
[3]
  stoichiometry N: 3

B7: MtrE, wild type (natural protein, Neisseria gonorrhoeae, UniProt Q51006 1-467, looked up)
chain: CTMIPQYEQPKVEVAETFQNDTSVSSIRAVDLGWHDYFADPRLQKLIDIALERNTSLRTAVLNSEIYRKQYMIERNNLLPTLAANANGSRQGSLSGGNVSSSYNVGLGAASYELDLFGRVRSSSEAALQGYFASVANRDAAHLSLIATVAKAYFNERYAEEAMSLAQRVLKTREETYNAVRIAVQGRRDFRRRPAPAEALIESAKADYAHAARSREQARNALATLINRPIPEDLPAGLPLDKQFFVEKLPAGLSSEVLLDRPDIRAAEHALKQANANIGAARAAFFPSIRLTGSVGTGSVELGGLFKSGTGVWAFAPSITLPIFTWGTNKANLDVAKLRQQAQIVAYESAVQSAFQDVANALAAREQLDKAYDALSKQSRASKEALRLVGLRYKHGVSGALDLLDAERSSYSAEGAALSAQLTRAENLADLYKALGGGLKRDTQTGK
[3]
  stoichiometry N: 3
